Data set [1] deals with histone H3.
Data set [2] concerns the target histone H1.
The target of data set [3] is wild-type N-terminus of human histone H3 peptide (aa 1-20).
In data set [4] the target is insulin.
The target of data set [5] is histone H2B.
Data set [6] addresses T1, N-terminus of human CENP-A peptide.
T1 chain: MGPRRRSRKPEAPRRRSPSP

Data set [7] has as its target T2, N-terminus of rat macro-H2A peptide.
T2 chain: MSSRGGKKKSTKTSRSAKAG

Data set [8] has as its target histone H4.
Data set [9] addresses T3, mutated H3 (K9L) N-terminal peptide.
T3 chain: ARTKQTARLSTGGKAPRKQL

Data set [10] addresses histone H2A.

B1: triple myc-tagged full-length human SUV39H1 (aa 3-412) (protein)
chain: ENLKGCSVCCKSSWNQLQDLCRLAKLSCPALGISKRNLYDFEVEYLCDYKKIREQEYYLVKWRGYPDSESTWEPRQNLKCVRILKQFHKDLERELLRRHHRSKTPRHLDPSLANYLVQKAKQRRALRRWEQELNAKRSHLGRITVENEVDLDGPPRAFVYINEYRVGEGITLNQVAVGCECQDCLWAPTGGCCPGASLHKFAYNDQGQVRLRAGLPIYECNSRCRCGYDCPNRVVQKGIRYDLCIFRTDDGRGWGVRTLEKIRKNSFVMEYVGEIITSEEAERRGQIYDRQGATYLFDLDYVEDVYTVDAAYYGNISHFVNHSCDPNLQVYNVFIDNLDERLPRIAFFATRTIRAGEELTFDYNMQVDPVDMESTRMDSNFGLAGLPGSPKKRVRIECKCGTESCRKYLF
On to B1, for which the “in vitro HMTase activity (transfer of 14C-methyl label to free histones, fluorography)” value in [1] was “indicating selective transfer of the methyl-label to H3”.

B2: murine GST-Suv39h1 product comprising aa 7-221 (protein)
chain: GCSVCCKSSWNQLQDLCRLAKLSCPALGVSKKNLYDFEVEYLCDYKKIREQEYYLVKWRGYPDSENTWEPRQNLKCIRVLKQFHKDLERELVRRHRRSKPPRHLDPNLANYLVQKAKQRRALQRWEQELNAKRSHLGRITVENEVDLDGPPRSFVYINEYRVGEGITLNQVAVGCECQDCLLAPTGGCCPGASLHKFAYNDQGQVRLKAGQPIYE
On to B2, for which the “in vitro HMTase activity (free histones, fluorography)” value in data set [1] is “proved negative, even at higher protein concentrations”.

B3: triple myc-tagged C-terminally truncated SUV39H1 protein (aa 3-118) (protein)
chain: ENLKGCSVCCKSSWNQLQDLCRLAKLSCPALGISKRNLYDFEVEYLCDYKKIREQEYYLVKWRGYPDSESTWEPRQNLKCVRILKQFHKDLERELLRRHHRSKTPRHLDPSLANYL
In the case of B3, in data set [1], the “in vitro HMTase activity (transfer of 14C-methyl label to free histones, fluorography)” value was “no signals were detected with extracts from a HeLa cell line that expresses only the N-terminal third of SUV39H1 (aa 3-118)”.

B4: murine GST-Suv39h1(aa 82-412) (protein)
chain: CIRVLKQFHKDLERELVRRHRRSKPPRHLDPNLANYLVQKAKQRRALQRWEQELNAKRSHLGRITVENEVDLDGPPRSFVYINEYRVGEGITLNQVAVGCECQDCLLAPTGGCCPGASLHKFAYNDQGQVRLKAGQPIYECNSRCCCGYDCPNRVVQKGIRYDLCIFRTNDGRGWGVRTLEKIRKNSFVMEYVGEIITSEEAERRGQIYDRQGATYLFDLDYVEDVYTVDAAYYGNISHFVNHSCDPNLQVYNVFIDNLDERLPRIAFFATRTIWAGEELTFDYNMQVDPVDMESTRMDSNFGLAGLPGSPKKRVRIECKCGTTACRKYLF
Take B4: the “in vitro methylation of individual histones (fluorography)” value in [2] is “A weak signal is present if H1 was used as the sole substrate”; in data set [5], “no signals are detected with H2A, H2B or H4”; in data set [8], “no signals are detected with H2A, H2B or H4”; in data set [1] it was “H3 is specifically methylated by GST-Suv39h1(aa 82-412)”; in data set [10] it was “no signals are detected with H2A, H2B or H4”. Moreover, in data set [3], the “3H-incorporation of individual amino acids (microsequencing of the in vitro methylated peptide, scintillation counting)” value is “The results confirmed selective transfer of methyl-label to lysine 9”. Moreover, the “in vitro methylation of N-terminal peptides (SDS-PAGE, fluorography)” value in [3] is on record as “selective methylation of the wild-type H3 peptide”; in [4] it was “no signals were detected with the CENP-A or macroH2A peptides, or with insulin”; in data set [6], “no signals were detected with the CENP-A or macroH2A peptides, or with insulin”; in [7] it was “no signals were detected with the CENP-A or macroH2A peptides, or with insulin”; in data set [9], “the mutated H3 (K9L) peptide was not a substrate”. The “in vitro HMTase activity (free histones, fluorography)” value in [1] is on record as “maintained HMTase activity (although at a reduced level as compared to transfected SUV39H1)”.

The record behind these values is patent US20050089880.
